Key:
Experiment in all cases: […]; 5 mM HEPES pH 7.5, 80 mM KCl, 20 °C; […]
Settings in all cases: both partners purified
[1] = target: T1, SARS-CoV-2 N protein residues 49–364 (SARS-CoV-2, UniProt P0DTC9 49-364)
T1 construct: also called N^49–364

[2] = target: T2, SARS-CoV-2 N protein residues 1–364 (SARS-CoV-2, UniProt P0DTC9 1-364)
T2 construct: also called N^1–364

[3] = target: T3, SARS-CoV-2 N protein residues 49–419 (SARS-CoV-2, UniProt P0DTC9 49-419)
T3 construct: also called N^49–419

Measured: binding result

B1: soluble C-terminal domain of SARS-CoV-2 membrane (M) protein (aa 104–222 of 222) fused to GFP (domain or fragment)
chain: ARTRSMWSFNPETNILLNVPLHGTILTRPLLESELVIGAVILRGHLRIAGHHLGRCDIKDLPKEITVATSRTLSYYKLGASQRVAGDSGFAAYSRYRIGNYKLNTDHSSSSDNIALLVQ
notes: also called GFP-M^104–222
binds: all assays above

Source: PMC7820290 (Nature Communications, 2020)
